Results published in US20030021765A1 (Biogen, published 2003).

How the values were obtained:
[1] = target: T1, IFNAR2/Ig fusion protein (IFNAR2 extracellular domain fused to the hinge, CH2 and CH3 domains of human IgG1) (human, UniProt P48551 27-243); assay: ELISA on captured IFNAR2-Fc; reference, value not given
T1 construct: extracellular domain; also called IFNAR2/Fc; IFNAR2-Fc; not shown: human IgG1 constant region: hinge, CH2 and CH3 domains
T1 sequence (looked up): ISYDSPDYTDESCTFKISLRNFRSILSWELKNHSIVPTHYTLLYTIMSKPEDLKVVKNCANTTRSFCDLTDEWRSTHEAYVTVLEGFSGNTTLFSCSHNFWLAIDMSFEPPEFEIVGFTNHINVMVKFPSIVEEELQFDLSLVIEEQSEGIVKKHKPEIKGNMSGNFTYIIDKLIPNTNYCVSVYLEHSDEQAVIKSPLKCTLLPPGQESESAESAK
Method: The receptor binding properties of the Interferon-beta mutants described in C were assessed using two different binding assays. One assay measured binding of the interferon-beta mutants to a fusion protein, IFNAR2/Ig, comprising the extracellular domain of the human IFNAR2 receptor chain fused to part of the constant region of a human IgG. IFNAR2-Fc was expressed in chinese hamster ovary (CHO) cells and purified by protein A sepharose affinity chromatography according to the instructions of the manufacturer (Pierce Chem. Co., Rockford, Ill., catalog #20334). The binding of interferon-beta mutants to IFNAR2-Fc was measured in an ELISA format assay. […] Binding of the interferon-beta mutants to IFNAR2-Fc was measured by adding 50 μl/well mutant interferon-beta in conditioned media, serially diluted in Dulbecco's Modified Eagle's Medium (DMEM) supplemented with 10% fetal bovine serum, and incubating for 2 hours at 4° C. […] After washing, interferon-beta bound to the plates was detected by adding 50 μl/well of a cocktail consisting of a 1:1000 dilution of a rabbit polyclonal anti-interferon antibody (#447) plus horseradish peroxidase (HRP)-labelled donkey anti-rabbit IgG (Jackson ImmunoResearch), and incubating for 15 minutes at 4° C. After two washes, HRP substrate was added, and the plate was incubated at 4° C. before being read on an ELISA plate reader at an absorbance of 450 nm. […]

[2] = target: T1, IFNAR2/Ig fusion protein (IFNAR2 …); assay: ELISA on captured IFNAR2-Fc
Method: (§1) The receptor binding properties of the Interferon-beta mutants described in C were assessed using two different binding assays. One assay measured binding of the interferon-beta mutants to a fusion protein, IFNAR2/Ig, comprising the extracellular domain of the human IFNAR2 receptor chain fused to part of the constant region of a human IgG. IFNAR2-Fc was expressed in chinese hamster ovary (CHO) cells and purified by protein A sepharose affinity chromatography according to the instructions of the manufacturer (Pierce Chem. Co., Rockford, Ill., catalog #20334). The binding of interferon-beta mutants to IFNAR2-Fc was measured in an ELISA format assay. ELISA plates were prepared by coating flat-bottomed 96 well plates overnight at 4° C. with 50 μl/well of mouse anti-human IgG1 monoclonal antibody (CDG5-AA9, Biogen, Inc.) at 10 μg/ml in coating buffer (50 mM NaHCO₃, 0.2 mM MgCl₂, 0.2 mM CaCl₂, pH 9.6). Plates were washed twice with PBS containing 0.05% Tween-20, and blocked with 0.5% non-fat dry milk in PBS for 1 hour at room temperature. After two more washes, 50 μl of 1 μg/ml IFNAR2-Fc in 0.5% milk in PBS containing 0.05% Tween-20 was added to each well and incubated for 1 hour at room temperature, and the plates were then washed twice more. Binding of the interferon-beta mutants to IFNAR2-Fc was measured by adding 50 μl/well mutant interferon-beta in conditioned media, serially diluted in Dulbecco's Modified Eagle's Medium (DMEM) supplemented with 10% fetal bovine serum, and incubating for 2 hours at 4° C. Dilutions of interferon-beta mutant typically ranged from approximately 1 μM down to 10 pM. After washing, interferon-beta bound to the plates was detected by adding 50 μl/well of a cocktail consisting of a 1:1000 dilution of a rabbit polyclonal anti-interferon antibody (#447) plus horseradish peroxidase (HRP)-labelled donkey anti-rabbit IgG (Jackson ImmunoResearch), and incubating for 15 minutes at 4° C. After two washes, HRP substrate was added, and the plate was incubated at 4° C. before being read on an ELISA plate reader at an absorbance of 450 nm. Data were plotted as absorbance versus the concentration of mutant interferon-beta, and the affinity for the binding of the mutant interferon-beta to IFNAR2-Fc was determined by fitting the data to a simple hyperbolic binding equation.

[3] = target: T1, IFNAR2/Ig fusion protein (IFNAR2 …); assay: ELISA; IFNAR2-Fc captured on anti-human IgG1 plate; mutant in conditioned medium
Method: as §1

B1: his tagged-wild-type interferon-beta-1a (ligand)
chain: SGGHHHHHHSSGDDDDKMSYNLLGFLQRSSNFQCQKLLWQLNGRLEYCLKDRMNFDIPEEIKQLQQFQKEDAALTIYEMLQNIFAIFRQDSSSTGWNETIVENLLANVYHQINHLKTVLEEKLEKEDFTRGKLMSSLHLKRYYGRILHYLKAKEYSHCAWTIVRVEILRNFYFINRLTGYLRN
notes: Expressed in human EBNA 293 cells and tested as conditioned medium; also called wild type his-IFN-beta; w.t. his-IFN-beta
[1]
  binding result: binds

B2: his tagged-interferon-beta alanine substitution mutant A2 (ligand)
chain: SGGHHHHHHSSGDDDDKMSYNLLGFLQRSSNAACAALLAALNGRLEYCLKDRMNFDIPEEIKQLQQFQKEDAALTIYEMLQNIFAIFRQDSSSTGWNETIVENLLANVYHQINHLKTVLEEKLEKEDFTRGKLMSSLHLKRYYGRILHYLKAKEYSHCAWTIVRVEILRNFYFINRLTGYLRN
notes: Tested as EBNA 293 conditioned medium; also called A2 helix mutant
[2]
  EC50 relative to w.t. his-IFN-beta EC50: > 500 fold of w.t. his-IFN-beta EC50
[3]
  binding result: no binding

B3: his tagged-interferon-beta alanine substitution mutant AB2 (ligand)
chain: SGGHHHHHHSSGDDDDKMSYNLLGFLQRSSNFQCQKLLWQLNGRLEYCLKDRAAFAIPAEIKQLQQFQKEDAALTIYEMLQNIFAIFRQDSSSTGWNETIVENLLANVYHQINHLKTVLEEKLEKEDFTRGKLMSSLHLKRYYGRILHYLKAKEYSHCAWTIVRVEILRNFYFINRLTGYLRN
notes: Tested as EBNA 293 conditioned medium
[2]
  EC50 relative to w.t. his-IFN-beta EC50: > 500 fold of w.t. his-IFN-beta EC50
[3]
  binding result: no binding

B4: his tagged-interferon-beta alanine substitution mutant E (ligand)
chain: SGGHHHHHHSSGDDDDKMSYNLLGFLQRSSNFQCQKLLWQLNGRLEYCLKDRMNFDIPEEIKQLQQFQKEDAALTIYEMLQNIFAIFRQDSSSTGWNETIVENLLANVYHQINHLKTVLEEKLEKEDFTRGKLMSSLHLKRYYGRILHYLKAKEYSHCAWTIVRAEILANFAFIARLTGYLRN
notes: also called E helix mutant
[2]
  EC50 relative to w.t. his-IFN-beta EC50: > 500 fold of w.t. his-IFN-beta EC50
[3]
  binding result: no binding

B5: his tagged-interferon-beta alanine substitution mutant AB1 (ligand)
chain: SGGHHHHHHSSGDDDDKMSYNLLGFLQRSSNFQCQKLLWQLNGRAAACAADRMNFDIPEEIKQLQQFQKEDAALTIYEMLQNIFAIFRQDSSSTGWNETIVENLLANVYHQINHLKTVLEEKLEKEDFTRGKLMSSLHLKRYYGRILHYLKAKEYSHCAWTIVRVEILRNFYFINRLTGYLRN
notes: as for B3
[2]
  EC50 relative to w.t. his-IFN-beta EC50: > 500 fold of w.t. his-IFN-beta EC50
[3]
  binding result: no binding
